Measured values reported in the Human Domainome abundance scans (Beltran et al. 2025).
± gives the uncertainty stated by the source.

B1: Tripartite motif-containing protein 44, residues 174 to 218; numbered along this chain, Q96DX7 (parent)
chain: VAKRKCPDHGLDLSTYCQEDRQLICVLCPVIGAHQGHQLSTLDEA

Variants of: B1
Test: abundance fitness (aPCA) (normalised: wild type 0, dead -1); higher = more abundant; growth selection in yeast, the domain comes from the species named
Conditions: Homo sapiens

VAKMKCPDHGLDLSTYCQEDRQLICVLCPVIGAHQGHQLSTLDEA and VAKDKCPDHGLDLSTYCQEDRQLICVLCPVIGAHQGHQLSTLDEA are within error of each other in abundance fitness: 0.023 ± 0.033 for the first, 0.016 ± 0.033 for the second.

VAKAKCPDHGLDLSTYCQEDRQLICVLCPVIGAHQGHQLSTLDEA and VAKGKCPDHGLDLSTYCQEDRQLICVLCPVIGAHQGHQLSTLDEA are within error of each other in abundance fitness: -0.062 ± 0.029 for the first, -0.057 ± 0.025 for the second.

First: VAKNKCPDHGLDLSTYCQEDRQLICVLCPVIGAHQGHQLSTLDEA
Second: VAKEKCPDHGLDLSTYCQEDRQLICVLCPVIGAHQGHQLSTLDEA
The abundance fitness of the first is higher: 0.071 ± 0.064 for the first, -0.046 ± 0.028 for the second.

Going from VAKHKCPDHGLDLSTYCQEDRQLICVLCPVIGAHQGHQLSTLDEA to VAKFKCPDHGLDLSTYCQEDRQLICVLCPVIGAHQGHQLSTLDEA, the abundance fitness rises from -0.198 ± 0.051 to -0.041 ± 0.047.

Compared with VAKLKCPDHGLDLSTYCQEDRQLICVLCPVIGAHQGHQLSTLDEA, VAKWKCPDHGLDLSTYCQEDRQLICVLCPVIGAHQGHQLSTLDEA is lower in abundance fitness: -0.061 ± 0.03 for the first, -0.162 ± 0.028 for the second.

First: VAKCKCPDHGLDLSTYCQEDRQLICVLCPVIGAHQGHQLSTLDEA
Second: VAKSKCPDHGLDLSTYCQEDRQLICVLCPVIGAHQGHQLSTLDEA
The abundance fitness of the first is lower: -0.248 ± 0.056 for the first, -0.054 ± 0.032 for the second.

VAKVKCPDHGLDLSTYCQEDRQLICVLCPVIGAHQGHQLSTLDEA and VAKIKCPDHGLDLSTYCQEDRQLICVLCPVIGAHQGHQLSTLDEA are within error of each other in abundance fitness: -0.086 ± 0.029 for the first, -0.046 ± 0.042 for the second.

First: VAKPKCPDHGLDLSTYCQEDRQLICVLCPVIGAHQGHQLSTLDEA
Second: VAKTKCPDHGLDLSTYCQEDRQLICVLCPVIGAHQGHQLSTLDEA
The abundance fitness of the first is lower: -0.314 ± 0.037 for the first, -0.07 ± 0.032 for the second.

VAKKKCPDHGLDLSTYCQEDRQLICVLCPVIGAHQGHQLSTLDEA and VGKRKCPDHGLDLSTYCQEDRQLICVLCPVIGAHQGHQLSTLDEA are within error of each other in abundance fitness: 0.007 ± 0.034 for the first, -0.04 ± 0.027 for the second.

First: VRKRKCPDHGLDLSTYCQEDRQLICVLCPVIGAHQGHQLSTLDEA
Second: VNKRKCPDHGLDLSTYCQEDRQLICVLCPVIGAHQGHQLSTLDEA
The abundance fitness of the first is lower: -0.12 ± 0.029 for the first, 0.096 ± 0.062 for the second.

Compared with VPKRKCPDHGLDLSTYCQEDRQLICVLCPVIGAHQGHQLSTLDEA, VSKRKCPDHGLDLSTYCQEDRQLICVLCPVIGAHQGHQLSTLDEA is higher in abundance fitness: -0.088 ± 0.04 for the first, 0.045 ± 0.033 for the second.

VDKRKCPDHGLDLSTYCQEDRQLICVLCPVIGAHQGHQLSTLDEA and VFKRKCPDHGLDLSTYCQEDRQLICVLCPVIGAHQGHQLSTLDEA are within error of each other in abundance fitness: 0.053 ± 0.03 for the first, 0.009 ± 0.065 for the second.

First: VTKRKCPDHGLDLSTYCQEDRQLICVLCPVIGAHQGHQLSTLDEA
Second: VLKRKCPDHGLDLSTYCQEDRQLICVLCPVIGAHQGHQLSTLDEA
The abundance fitness of the first is higher: 0.12 ± 0.039 for the first, -0.031 ± 0.032 for the second.

VYKRKCPDHGLDLSTYCQEDRQLICVLCPVIGAHQGHQLSTLDEA and VIKRKCPDHGLDLSTYCQEDRQLICVLCPVIGAHQGHQLSTLDEA are within error of each other in abundance fitness: -0.027 ± 0.059 for the first, 0.041 ± 0.039 for the second.

Going from VEKRKCPDHGLDLSTYCQEDRQLICVLCPVIGAHQGHQLSTLDEA to VMKRKCPDHGLDLSTYCQEDRQLICVLCPVIGAHQGHQLSTLDEA, the abundance fitness falls from 0.087 ± 0.031 to -0.009 ± 0.041.

Compared with VCKRKCPDHGLDLSTYCQEDRQLICVLCPVIGAHQGHQLSTLDEA, VVKRKCPDHGLDLSTYCQEDRQLICVLCPVIGAHQGHQLSTLDEA is lower in abundance fitness: 0.04 ± 0.041 for the first, -0.037 ± 0.028 for the second.

Going from VHKRKCPDHGLDLSTYCQEDRQLICVLCPVIGAHQGHQLSTLDEA to VAKRACPDHGLDLSTYCQEDRQLICVLCPVIGAHQGHQLSTLDEA, the abundance fitness falls from 0.03 ± 0.044 to -0.235 ± 0.027.

VAKRHCPDHGLDLSTYCQEDRQLICVLCPVIGAHQGHQLSTLDEA and VAKRECPDHGLDLSTYCQEDRQLICVLCPVIGAHQGHQLSTLDEA are within error of each other in abundance fitness: -0.24 ± 0.063 for the first, -0.173 ± 0.03 for the second.

VAKRNCPDHGLDLSTYCQEDRQLICVLCPVIGAHQGHQLSTLDEA and VAKRCCPDHGLDLSTYCQEDRQLICVLCPVIGAHQGHQLSTLDEA are within error of each other in abundance fitness: -0.111 ± 0.07 for the first, -0.141 ± 0.036 for the second.

VAKRLCPDHGLDLSTYCQEDRQLICVLCPVIGAHQGHQLSTLDEA and VAKRFCPDHGLDLSTYCQEDRQLICVLCPVIGAHQGHQLSTLDEA are within error of each other in abundance fitness: -0.15 ± 0.028 for the first, -0.129 ± 0.052 for the second.

Compared with VAKRGCPDHGLDLSTYCQEDRQLICVLCPVIGAHQGHQLSTLDEA, VAKRDCPDHGLDLSTYCQEDRQLICVLCPVIGAHQGHQLSTLDEA is lower in abundance fitness: -0.218 ± 0.025 for the first, -0.409 ± 0.04 for the second.

VAKRICPDHGLDLSTYCQEDRQLICVLCPVIGAHQGHQLSTLDEA and VAGRKCPDHGLDLSTYCQEDRQLICVLCPVIGAHQGHQLSTLDEA are within error of each other in abundance fitness: -0.198 ± 0.16 for the first, -0.052 ± 0.026 for the second.

VANRKCPDHGLDLSTYCQEDRQLICVLCPVIGAHQGHQLSTLDEA and VARRKCPDHGLDLSTYCQEDRQLICVLCPVIGAHQGHQLSTLDEA are within error of each other in abundance fitness: -0.042 ± 0.074 for the first, -0.073 ± 0.026 for the second.

Compared with VAPRKCPDHGLDLSTYCQEDRQLICVLCPVIGAHQGHQLSTLDEA, VATRKCPDHGLDLSTYCQEDRQLICVLCPVIGAHQGHQLSTLDEA is higher in abundance fitness: -0.093 ± 0.031 for the first, -0.013 ± 0.033 for the second.

VAQRKCPDHGLDLSTYCQEDRQLICVLCPVIGAHQGHQLSTLDEA and VAFRKCPDHGLDLSTYCQEDRQLICVLCPVIGAHQGHQLSTLDEA are within error of each other in abundance fitness: -0.038 ± 0.033 for the first, -0.124 ± 0.054 for the second.

VAVRKCPDHGLDLSTYCQEDRQLICVLCPVIGAHQGHQLSTLDEA and VAYRKCPDHGLDLSTYCQEDRQLICVLCPVIGAHQGHQLSTLDEA are within error of each other in abundance fitness: -0.076 ± 0.028 for the first, -0.137 ± 0.052 for the second.

Going from VAERKCPDHGLDLSTYCQEDRQLICVLCPVIGAHQGHQLSTLDEA to VASRKCPDHGLDLSTYCQEDRQLICVLCPVIGAHQGHQLSTLDEA, the abundance fitness falls from 0.02 ± 0.028 to -0.056 ± 0.031.

First: VAWRKCPDHGLDLSTYCQEDRQLICVLCPVIGAHQGHQLSTLDEA
Second: VADRKCPDHGLDLSTYCQEDRQLICVLCPVIGAHQGHQLSTLDEA
The abundance fitness of the first is lower: -0.196 ± 0.029 for the first, 0.024 ± 0.032 for the second.

Work on VAIRKCPDHGLDLSTYCQEDRQLICVLCPVIGAHQGHQLSTLDEA yielded an abundance fitness of 0.032 ± 0.04.
